The target in test [1] is T1, human amylin receptor (amylin 3(a) receptor: human calcitonin receptor with RAMP-3) (human, UniProt P30988 25-474; O60896 24-148, limits assumed).
T1 construct: whole, on cells; Whole cells in the luciferase assay (Assay II a); also called hAmylin-R; hAmylinR
T1 sequence (looked up) 1: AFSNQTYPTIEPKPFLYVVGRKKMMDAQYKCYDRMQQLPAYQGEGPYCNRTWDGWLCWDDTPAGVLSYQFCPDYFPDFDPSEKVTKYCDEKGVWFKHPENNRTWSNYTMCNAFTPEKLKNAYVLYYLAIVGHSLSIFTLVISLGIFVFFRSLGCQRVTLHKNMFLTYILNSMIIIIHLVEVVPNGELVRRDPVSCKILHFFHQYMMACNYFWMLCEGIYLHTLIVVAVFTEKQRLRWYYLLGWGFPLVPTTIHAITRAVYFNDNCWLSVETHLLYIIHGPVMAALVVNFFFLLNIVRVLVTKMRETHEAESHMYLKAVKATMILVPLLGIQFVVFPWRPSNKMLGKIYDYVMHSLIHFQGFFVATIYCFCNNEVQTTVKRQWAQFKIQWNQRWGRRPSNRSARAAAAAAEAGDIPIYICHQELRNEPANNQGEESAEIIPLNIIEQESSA
T1 sequence (looked up) 2: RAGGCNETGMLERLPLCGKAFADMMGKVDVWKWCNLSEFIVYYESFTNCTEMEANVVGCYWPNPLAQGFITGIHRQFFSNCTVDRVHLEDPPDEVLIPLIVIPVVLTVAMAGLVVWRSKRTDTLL
The test can be described thus: SPA competition binding on membranes of BHK cells with human calcitonin receptor + RAMP-3; displacement of 125I-rat amylin (Assay V). How it is done:
The binding assay was performed using scintillation proximity assay (SPA) beads (RPNQ0001) from PerkinElmer and cell membranes from the Amylin 3(a)/CRE-luc cells (as described in Assay (II)) were used. Membranes were prepared in the following way; the cells were rinsed with PBS and incubated with Versene for approximately 5 min before harvesting. The cells were flushed with PBS and the cell-suspension was centrifuged for 5 min at 1000 rpm. Cells were homogenized (ultrathurrax) in a buffer containing 20 mM Na-HEPES and 10 mM EDTA (pH 7.4) and centrifuged at 20.000 rpm for 15 min. The resulting pellet was resuspended, homogenized and centrifuged (20.000 rpm, 15 min) in a buffer containing 20 mM Na-HEPES and 0.1 mM EDTA (pH 7.4, buffer 2). The resulting pellet was resuspended in buffer 2 and protein concentration was measured (BCA protein Assay, Pierce). The homogenate was kept cold during the whole procedure. The membranes were kept at −80° C. until use. The assay was performed in a 384 well Optiplate (PerkinElmer) in a total volume of 40 ul. Membranes were mixed with SPA beads. Final concentration of membranes 35 ng/μL final and SPA beads was 0.05 mg/well. Test-compounds were dissolved in DMSO and further diluted in assay buffer (50 mM Hepes, pH 7.4, 1 mM CaCl2, 5 mM MgCl₂, 0.1% OA and 0.02% Tween20). […] The final mixture was incubated with shaking at 400 rpm for 120 min at 25° C. prior to centrifugation (1500 rpm, 10 min). Samples were analyzed on TopCounter™ (Packard). The IC₅₀ was calculated using (one site binding competition analysis) GraphPad Prism5 as a measure of receptor affinity.
Background: Loss of bound radioactivity is the signal in a displacement assay; it reports binding, not function.

For test [2], the target named is T2, human calcitonin receptor (human, UniProt P30988 25-474).
T2 sequence (looked up): T1 sequence (looked up) 1
Put plainly: cell-based or functional assay.

Numbered stars: 1 amine (or outer) side, 2 acyl side, 3 side chain; on linkers, the order of the positions; unused ones are H or OH. Bridge positions count the residues as written; N and C are the ends. Side chains are listed from the residue outwards. Ends that are not written are not given here. * marks the point of attachment. C20 diacid = O=C(O)CCCCCCCCCCCCCCCCCCC(=O)*; γGlu = O=C(O)[C@H](CCC(=O)[*:2])N[*:1]

B1: N^α1-[(4S)-4-carboxy-4-[[(4S)-4-carboxy-4-(19-carboxynonadecanoylamino)butanoyl]amino]butanoyl]-[Glu14,Arg17,Pro21,Pro27,Pro37]-h-amylin (peptide)
peptide: {C20 diacid-γGlu-γGlu}-KCNTATCATQRLAEFLRHSSPNFGAIPSSTNVGSNTP-NH2
modifications: disulfide 2-7
SMILES: CC[C@H](C)[C@H](NC(=O)[C@H](C)NC(=O)CNC(=O)[C@H](Cc1ccccc1)NC(=O)[C@H](CC(N)=O)NC(=O)[C@@H]1CCCN1C(=O)[C@H](CO)NC(=O)[C@H](CO)NC(=O)[C@H](Cc1c[nH]cn1)NC(=O)[C@H](CCCNC(=N)N)NC(=O)[C@H](CC(C)C)NC(=O)[C@H](Cc1ccccc1)NC(=O)[C@H](CCC(=O)O)NC(=O)[C@H](C)NC(=O)[C@H](CC(C)C)NC(=O)[C@H](CCCNC(=N)N)NC(=O)[C@H](CCC(N)=O)NC(=O)[C@@H](NC(=O)[C@H](C)NC(=O)[C@@H]1CSSC[C@H](NC(=O)[C@H](CCCCN)NC(=O)CC[C@H](NC(=O)CC[C@H](NC(=O)CCCCCCCCCCCCCCCCCCC(=O)O)C(=O)O)C(=O)O)C(=O)N[C@@H](CC(N)=O)C(=O)N[C@@H]([C@@H](C)O)C(=O)N[C@@H](C)C(=O)N[C@@H]([C@@H](C)O)C(=O)N1)[C@@H](C)O)C(=O)N1CCC[C@H]1C(=O)N[C@@H](CO)C(=O)N[C@@H](CO)C(=O)N[C@H](C(=O)N[C@@H](CC(N)=O)C(=O)N[C@H](C(=O)NCC(=O)N[C@@H](CO)C(=O)N[C@@H](CC(N)=O)C(=O)N[C@H](C(=O)N1CCC[C@H]1C(N)=O)[C@@H](C)O)C(C)C)[C@@H](C)O
notes: also called compound 14
As a reminder, the IC50 is the concentration needed to halve the response being measured. Turning to B1, in test [1], the IC50 came out at 0.196 nM. Also, in test [2], the “Ratio hCT/hAmylin funct.” value worked out at 1.6 ratio.

B2: N^α1N^α1-[(4S)-4-carboxy-4-(19-carboxynonadecanoylamino)butanoyl]-[Glu14,Arg17,Pro21,Pro27,Glu35]-h-amylin (peptide)
peptide: {C20 diacid-γGlu}-KCNTATCATQRLAEFLRHSSPNFGAIPSSTNVGSETY-NH2
modifications: disulfide 2-7
SMILES: CC[C@H](C)[C@H](NC(=O)[C@H](C)NC(=O)CNC(=O)[C@H](Cc1ccccc1)NC(=O)[C@H](CC(N)=O)NC(=O)[C@@H]1CCCN1C(=O)[C@H](CO)NC(=O)[C@H](CO)NC(=O)[C@H](Cc1c[nH]cn1)NC(=O)[C@H](CCCNC(=N)N)NC(=O)[C@H](CC(C)C)NC(=O)[C@H](Cc1ccccc1)NC(=O)[C@H](CCC(=O)O)NC(=O)[C@H](C)NC(=O)[C@H](CC(C)C)NC(=O)[C@H](CCCNC(=N)N)NC(=O)[C@H](CCC(N)=O)NC(=O)[C@@H](NC(=O)[C@H](C)NC(=O)[C@@H]1CSSC[C@H](NC(=O)[C@H](CCCCN)NC(=O)CC[C@H](NC(=O)CCCCCCCCCCCCCCCCCCC(=O)O)C(=O)O)C(=O)N[C@@H](CC(N)=O)C(=O)N[C@@H]([C@@H](C)O)C(=O)N[C@@H](C)C(=O)N[C@@H]([C@@H](C)O)C(=O)N1)[C@@H](C)O)C(=O)N1CCC[C@H]1C(=O)N[C@@H](CO)C(=O)N[C@@H](CO)C(=O)N[C@H](C(=O)N[C@@H](CC(N)=O)C(=O)N[C@H](C(=O)NCC(=O)N[C@@H](CO)C(=O)N[C@@H](CCC(=O)O)C(=O)N[C@H](C(=O)N[C@@H](Cc1ccc(O)cc1)C(N)=O)[C@@H](C)O)C(C)C)[C@@H](C)O
notes: also called compound 22
On to B2, for which the IC50 in test [1] came out at 0.794 nM. For the same molecule, the “Ratio hCT/hAmylin funct.” value in test [2] was found to be 3.8 ratio.

B3: N^ε1-[(4S)-4-carboxy-4-(19-carboxynonadecanoylamino)butanoyl]-[Glu14,Arg17,Pro21,Pro27,Pro34,Pro37]-h-amylin (peptide)
peptide: K([γGlu-C20 diacid])CNTATCATQRLAEFLRHSSPNFGAIPSSTNVGPNTP-NH2
modifications: disulfide 2-7; N-terminus assumed
SMILES: CC[C@H](C)[C@H](NC(=O)[C@H](C)NC(=O)CNC(=O)[C@H](Cc1ccccc1)NC(=O)[C@H](CC(N)=O)NC(=O)[C@@H]1CCCN1C(=O)[C@H](CO)NC(=O)[C@H](CO)NC(=O)[C@H](Cc1c[nH]cn1)NC(=O)[C@H](CCCNC(=N)N)NC(=O)[C@H](CC(C)C)NC(=O)[C@H](Cc1ccccc1)NC(=O)[C@H](CCC(=O)O)NC(=O)[C@H](C)NC(=O)[C@H](CC(C)C)NC(=O)[C@H](CCCNC(=N)N)NC(=O)[C@H](CCC(N)=O)NC(=O)[C@@H](NC(=O)[C@H](C)NC(=O)[C@@H]1CSSC[C@H](NC(=O)[C@@H](N)CCCCNC(=O)CC[C@H](NC(=O)CCCCCCCCCCCCCCCCCCC(=O)O)C(=O)O)C(=O)N[C@@H](CC(N)=O)C(=O)N[C@@H]([C@@H](C)O)C(=O)N[C@@H](C)C(=O)N[C@@H]([C@@H](C)O)C(=O)N1)[C@@H](C)O)C(=O)N1CCC[C@H]1C(=O)N[C@@H](CO)C(=O)N[C@@H](CO)C(=O)N[C@H](C(=O)N[C@@H](CC(N)=O)C(=O)N[C@H](C(=O)NCC(=O)N1CCC[C@H]1C(=O)N[C@@H](CC(N)=O)C(=O)N[C@H](C(=O)N1CCC[C@H]1C(N)=O)[C@@H](C)O)C(C)C)[C@@H](C)O
Take B3: the IC50 in test [1] was 0.214 nM. Also, the “Ratio hCT/hAmylin funct.” value in test [2] was found to be 0.9 ratio.

B4: N^ε1-[(4S)-4-carboxy-4-(19-carboxynonadecanoylamino)butanoyl]-[Asp14,Arg17,Pro21,Pro27,Pro34,Glu35]-h-amylin (peptide)
peptide: K([γGlu-C20 diacid])CNTATCATQRLADFLRHSSPNFGAIPSSTNVGPETY-NH2
modifications: disulfide 2-7; N-terminus assumed
SMILES: CC[C@H](C)[C@H](NC(=O)[C@H](C)NC(=O)CNC(=O)[C@H](Cc1ccccc1)NC(=O)[C@H](CC(N)=O)NC(=O)[C@@H]1CCCN1C(=O)[C@H](CO)NC(=O)[C@H](CO)NC(=O)[C@H](Cc1c[nH]cn1)NC(=O)[C@H](CCCNC(=N)N)NC(=O)[C@H](CC(C)C)NC(=O)[C@H](Cc1ccccc1)NC(=O)[C@H](CC(=O)O)NC(=O)[C@H](C)NC(=O)[C@H](CC(C)C)NC(=O)[C@H](CCCNC(=N)N)NC(=O)[C@H](CCC(N)=O)NC(=O)[C@@H](NC(=O)[C@H](C)NC(=O)[C@@H]1CSSC[C@H](NC(=O)[C@@H](N)CCCCNC(=O)CC[C@H](NC(=O)CCCCCCCCCCCCCCCCCCC(=O)O)C(=O)O)C(=O)N[C@@H](CC(N)=O)C(=O)N[C@@H]([C@@H](C)O)C(=O)N[C@@H](C)C(=O)N[C@@H]([C@@H](C)O)C(=O)N1)[C@@H](C)O)C(=O)N1CCC[C@H]1C(=O)N[C@@H](CO)C(=O)N[C@@H](CO)C(=O)N[C@H](C(=O)N[C@@H](CC(N)=O)C(=O)N[C@H](C(=O)NCC(=O)N1CCC[C@H]1C(=O)N[C@@H](CCC(=O)O)C(=O)N[C@H](C(=O)N[C@@H](Cc1ccc(O)cc1)C(N)=O)[C@@H](C)O)C(C)C)[C@@H](C)O
With B4, in test [1], the IC50 is 0.196 nM. Further, in test [2], the “Ratio hCT/hAmylin funct.” value was 3.9 ratio and the “hCTR funct. EC50 (pM)” value was determined as 1120 pM.

B5: N^ε1-[(4S)-4-carboxy-4-(19-carboxynonadecanoylamino)butanoyl]-[Ala14,Arg17,Pro21,Pro27,Pro34]-h-amylin (peptide)
peptide: K([γGlu-C20 diacid])CNTATCATQRLAAFLRHSSPNFGAIPSSTNVGPNTY-NH2
modifications: disulfide 2-7; N-terminus assumed
SMILES: CC[C@H](C)[C@H](NC(=O)[C@H](C)NC(=O)CNC(=O)[C@H](Cc1ccccc1)NC(=O)[C@H](CC(N)=O)NC(=O)[C@@H]1CCCN1C(=O)[C@H](CO)NC(=O)[C@H](CO)NC(=O)[C@H](Cc1c[nH]cn1)NC(=O)[C@H](CCCNC(=N)N)NC(=O)[C@H](CC(C)C)NC(=O)[C@H](Cc1ccccc1)NC(=O)[C@H](C)NC(=O)[C@H](C)NC(=O)[C@H](CC(C)C)NC(=O)[C@H](CCCNC(=N)N)NC(=O)[C@H](CCC(N)=O)NC(=O)[C@@H](NC(=O)[C@H](C)NC(=O)[C@@H]1CSSC[C@H](NC(=O)[C@@H](N)CCCCNC(=O)CC[C@H](NC(=O)CCCCCCCCCCCCCCCCCCC(=O)O)C(=O)O)C(=O)N[C@@H](CC(N)=O)C(=O)N[C@@H]([C@@H](C)O)C(=O)N[C@@H](C)C(=O)N[C@@H]([C@@H](C)O)C(=O)N1)[C@@H](C)O)C(=O)N1CCC[C@H]1C(=O)N[C@@H](CO)C(=O)N[C@@H](CO)C(=O)N[C@H](C(=O)N[C@@H](CC(N)=O)C(=O)N[C@H](C(=O)NCC(=O)N1CCC[C@H]1C(=O)N[C@@H](CC(N)=O)C(=O)N[C@H](C(=O)N[C@@H](Cc1ccc(O)cc1)C(N)=O)[C@@H](C)O)C(C)C)[C@@H](C)O
notes: also called compound 94
For B5, the IC50 in test [1] amounted to 0.148 nM. Moreover, the “Ratio hCT/hAmylin funct.” value in test [2] was determined as 4.5 ratio.

For the origin of these results see patent US20140087995A1 (published 2014).
